A word on the EC50: it is the concentration giving half of the maximal effect.

Drawing on patent US20230086069A1, this text covers EC50 for three substances.

This assay addresses human CD19 on cells (CD20+ B cells of human PBMC; Raji lymphoma cells) (human) (UniProt P15391). The assay is described as follows: flow cytometry, dose response on human CD20+ lymphocytes. (Flow cytometry measures light scatter and fluorescence of single cells or particles in a stream.)

Sequence of human CD19 on cells (CD20+ B cells of human PBMC; Raji lymphoma cells) (human) (P15391 20-556): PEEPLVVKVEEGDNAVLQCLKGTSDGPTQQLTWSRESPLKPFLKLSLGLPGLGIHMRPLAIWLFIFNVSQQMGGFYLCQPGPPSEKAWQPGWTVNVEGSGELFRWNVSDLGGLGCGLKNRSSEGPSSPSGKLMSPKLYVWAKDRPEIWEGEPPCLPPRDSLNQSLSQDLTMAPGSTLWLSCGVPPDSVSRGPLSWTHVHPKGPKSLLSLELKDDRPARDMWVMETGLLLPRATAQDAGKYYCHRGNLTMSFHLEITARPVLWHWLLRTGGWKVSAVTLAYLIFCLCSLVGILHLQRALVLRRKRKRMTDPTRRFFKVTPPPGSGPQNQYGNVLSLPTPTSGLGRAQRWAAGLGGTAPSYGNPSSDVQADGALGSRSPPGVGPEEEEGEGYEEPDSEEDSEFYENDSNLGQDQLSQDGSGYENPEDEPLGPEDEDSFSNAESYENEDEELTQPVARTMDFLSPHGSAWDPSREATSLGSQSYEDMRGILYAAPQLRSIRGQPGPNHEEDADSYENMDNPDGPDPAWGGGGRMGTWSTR

Regarding 4G7 (mouse anti-human CD19 antibody), the EC50 came to 0.549 µg/mL.

Take HIB19 (mouse anti-human CD19 antibody): the EC50 was found to be 0.0544 µg/mL.

SJ25C (mouse anti-human CD19 antibody) yielded an EC50 of 0.209 µg/mL.
